Results published in paper PMC12729873, “Linoleic Hydroperoxides Are Potent Hyperoxidative Agents of Sensitive and Robust Typical 2-Cys Peroxiredoxins” (Antioxidants, 2025).

Experiments:
Experiment in all cases: purified protein
CC(C)(OO)c1ccccc1 [1] = settings: S. cerevisiae Trx1/TrxR1, NADPH 150 µM, HEPES pH 7.4, 37 °C, DTPA 100 µM, azide 1 mM, fit to low-substrate phase only
CC(C)(OO)c1ccccc1 [2] = type: biochemical, Pseudomonas aeruginosa; settings: E. coli Trx/TrxR, NADPH 150 µM, HEPES pH 7.4, 37 °C, DTPA 100 µM, azide 1 mM, fit to low-substrate phase only
purified protein = substrate: CC(C)(OO)c1ccccc1; settings: E. coli Trx/TrxR, NADPH 150 µM, HEPES pH 7.4, 37 °C, DTPA 100 µM, azide 1 mM, fit to low-substrate phase only

With HsPrx2 (Homo sapiens) the Km (CC(C)(OO)c1ccccc1 [1]) was 57 (±17) µM, the Vmax (CC(C)(OO)c1ccccc1 [1]) was 101 µM/min and the kcat (CC(C)(OO)c1ccccc1 [1]) was 0.56 ± 0.09 s⁻¹. The kcat/Km (CC(C)(OO)c1ccccc1 [1]) was 9800 ± 1300 M⁻¹ s⁻¹.

For “PaAhpC (Pseudomonas aeruginosa UCBPP-PA14)”, the Km (CC(C)(OO)c1ccccc1 [2]) was 82 (±14) µM, the Vmax (CC(C)(OO)c1ccccc1 [2]) was 34.2 µM/min and the kcat (CC(C)(OO)c1ccccc1 [2]) was 0.18 ± 0.01 s⁻¹. The kcat/Km (CC(C)(OO)c1ccccc1 [2]) was 2000 ± 200 M⁻¹ s⁻¹.

B1: SeAhpC (Staphylococcus epidermidis RP62A) (protein)
chain: MSLINKEILPFTAQAYDPKKDEFKEVTQEDFKGSWNVVCFYPADFSFVCPTELEDLQNQYAKLQELGVNVYSVSTDTHFVHKAWHDHSDAISKLEYSMIGDPSQTITRNFDVLDEETGLAQRGTFIIDPDGVVQAAEINADGIGRDASTLVNKIKAAQYVRQHPGEVCPAKWEEGSESLQPGLDLVGKI
B1 was tested, and the Km (purified protein) was 76 (±10) µM, the Vmax (purified protein) was 35.4 µM/min and the kcat (purified protein) was 0.19 ± 0.01 s⁻¹. It also gave a kcat/Km (purified protein) of 2500 ± 100 M⁻¹ s⁻¹.
